# Biological target: QL9, nonameric variant of p2Ca (2-oxoglutarate dehydrogenase); residues not printed peptide on H-2Ld (mouse)
# Experiment: value cited from Manning et al. 1999; single-chain
substance,measurement,value
2C TCR,Kd,3.2 µM

# Source: patent publication US20020058253A1
